Test results published in PMC2889927.

What was measured:
Assay in all cases: flow cytometry on cells; PE-conjugated OCH-loaded human CD1d tetramers on human iNKT clones; 4°C, 45 min; mean fluorescence intensity
[1] = biological target: TCR of the human iNKT clone 4C862, on the cells of the clone (human)
[2] = biological target: TCR of the human iNKT clone 4C1369, on the cells of the clone (human)
[3] = biological target: TCR of the human iNKT clone 4C1227, on the cells of the clone (human)
[4] = biological target: TCR of the human iNKT clone DN347, on the cells of the clone (human)
[5] = biological target: TCR of the human iNKT clone 4C866, on the cells of the clone (human)

B1: PE-conjugated human CD1d tetramer loaded with OCH (complex)
chain: EVPQRLFPLRCLQISSFANSSWTRTDGLAWLGELQTHSWSNDSDTVRSLKPWSQGTFSDQQWETLQHIFRVYRSSFTRDVKEFAKMLRLSYPLELQVSAGCEVHPGNASNNFFHVAFQGKDILSFQGTSWEPTQEAPLWVNLAIQVLNQDKWTRETVQWLLNGTCPQFVSGLLESGKSELKKQVKPKAWLSRGPSPGPGRLLLVCHVSGFYPKPVWVKWMRGEQEQQGTQPGDILPNADETWYLRATLDVVAGEAAGLSCRVKHSSLEGQDIVLYWGGSYTSMGLIALAVLACLLFLLIVGFTSRFKRQTSYQGVL
OCH-tet (MFI) [1]: 862 MFI
OCH-tet (MFI) [2]: 1370 MFI
OCH-tet (MFI) [3]: 1230 MFI
OCH-tet (MFI) [4]: 347 MFI
OCH-tet (MFI) [5]: 866 MFI
